Measured values: patent US20240083958A1, “G PROTEIN PEPTIDOMIMETICS” (VRIJE UNIVERSITEIT BRUSSEL, priority 2020, published 2024)
Where two headings read alike, the source gives them in different places. Bridge positions count the residues as written; N and C are the ends. Square brackets hold non-standard residues; d marks the D form. S5 = C=CCCC[C@](C)(N)C(=O)O

B1: compound 26 (peptide)
peptide: Ac-FN[S5]CRD[S5]IQRMHLRQYELL-OH
modifications: staple 3-7
SMILES: CC[C@H](C)[C@H](NC(=O)[C@]1(C)CCCC=CCCC[C@](C)(NC(=O)[C@H](CC(N)=O)NC(=O)[C@H](Cc2ccccc2)NC(C)=O)C(=O)N[C@@H](CS)C(=O)N[C@@H](CCCNC(=N)N)C(=O)N[C@@H](CC(=O)O)C(=O)N1)C(=O)N[C@@H](CCC(N)=O)C(=O)N[C@@H](CCCNC(=N)N)C(=O)N[C@@H](CCSC)C(=O)N[C@@H](Cc1c[nH]cn1)C(=O)N[C@@H](CC(C)C)C(=O)N[C@@H](CCCNC(=N)N)C(=O)N[C@@H](CCC(N)=O)C(=O)N[C@@H](Cc1ccc(O)cc1)C(=O)N[C@@H](CCC(=O)O)C(=O)N[C@@H](CC(C)C)C(=O)N[C@@H](CC(C)C)C(=O)O
B2: compound 24 (peptide)
peptide: FNECRDKIQRMHLRQYELL
HELM: PEPTIDE1{[ac].F.N.E.C.R.D.K.I.Q.R.M.H.L.R.Q.Y.E.L.L}$PEPTIDE1,PEPTIDE1,4:R3-8:R3$$$V2.0
SMILES: CC[C@H](C)[C@H](NC(=O)[C@@H]1CCCCNC(=O)CC[C@H](NC(=O)[C@H](CC(N)=O)NC(=O)[C@H](Cc2ccccc2)NC(C)=O)C(=O)N[C@@H](CS)C(=O)N[C@@H](CCCNC(=N)N)C(=O)N[C@@H](CC(=O)O)C(=O)N1)C(=O)N[C@@H](CCC(N)=O)C(=O)N[C@@H](CCCNC(=N)N)C(=O)N[C@@H](CCSC)C(=O)N[C@@H](Cc1c[nH]cn1)C(=O)N[C@@H](CC(C)C)C(=O)N[C@@H](CCCNC(=N)N)C(=O)N[C@@H](CCC(N)=O)C(=O)N[C@@H](Cc1ccc(O)cc1)C(=O)N[C@@H](CCC(=O)O)C(=O)N[C@@H](CC(C)C)C(=O)N[C@@H](CC(C)C)C(=O)O
B3: compound 84 (peptide)
peptide: FNDCRDIIQRMHLRQYELX
HELM: PEPTIDE1{[ac].F.N.D.C.R.D.I.I.Q.R.M.H.L.R.Q.Y.E.L.[Cha]}$$$$V2.0
SMILES: CC[C@H](C)[C@H](NC(=O)[C@H](CC(=O)O)NC(=O)[C@H](CCCNC(=N)N)NC(=O)[C@H](CS)NC(=O)[C@H](CC(=O)O)NC(=O)[C@H](CC(N)=O)NC(=O)[C@H](Cc1ccccc1)NC(C)=O)C(=O)N[C@H](C(=O)N[C@@H](CCC(N)=O)C(=O)N[C@@H](CCCNC(=N)N)C(=O)N[C@@H](CCSC)C(=O)N[C@@H](Cc1c[nH]cn1)C(=O)N[C@@H](CC(C)C)C(=O)N[C@@H](CCCNC(=N)N)C(=O)N[C@@H](CCC(N)=O)C(=O)N[C@@H](Cc1ccc(O)cc1)C(=O)N[C@@H](CCC(=O)O)C(=O)N[C@@H](CC(C)C)C(=O)N[C@@H](CC1CCCCC1)C(=O)O)[C@@H](C)CC

Tests used:
Test in all cases: cell-based or functional assay
human β2AR [1] = target: T1, human β2AR (human, UniProt P07550 2-365)
human β2AR [2] = target: T1, human β2AR; remark: listed apart in the source
human β2AR [3] = target: T1, human β2AR; remark: listed apart in the source
human β2AR [4] = target: T1, human β2AR; remark: listed apart in the source
human β2AR [5] = target: T1, human β2AR; remark: listed apart in the source

Binder | IC50 (nM) of isoproterenol, [3H]-DHA RLA, peptidomimetic present (human β2AR [1]) [nM] | Shift (human β2AR [1]) | Shift (averaged) (human β2AR [2]) | IC50 (nM) of isoproterenol, [3H]-DHA RLA, peptidomimetic present (human β2AR [3]) [nM] | Shift (human β2AR [3]) | Shift (averaged) (human β2AR [4]) | IC50 (nM) of isoproterenol, [3H]-DHA RLA, peptidomimetic present (human β2AR [5]) [nM] | Shift (human β2AR [5])
Ac-FN[S5]CRD[S5]IQRMHLRQYELL-OH (bridges not given here) [compound 25] | 485 | 1 | 2 |  |  |  |  | 
B1 | 305 | 2 | 2 |  |  |  |  | 
B2 | 97.3 | 7 | 7 |  |  |  |  | 
Ac-NARRIFNDCRDIIQRMHLRQYELL-OH [compound 72] |  |  |  | 22.2 | 46 | 47 |  | 
B3 |  |  |  |  |  | 12 | 66.2 | 12
Ac-RRIFNDCRDIIQRMHLRQYELL-OH [compound 73] |  |  |  | 52.6 | 19 | 19 |  | 
Ac-FNECRDKIQRMHLRQYELL-OH [compound 23] | 270 |  | 3 |  |  |  |  | 
